Data published in patent US20210162028A1, “Methods for Inducing Intermittent Fasting and Modulating Autophagy” (The Hong Kong Polytechnic University, priority 2019, published 2021).

How the values were obtained:
[1] = Half-life / therapeutic duration in circulation; set-up: species or system mice; conditions: mouse, in vivo
Excerpt: As used herein, the term “half-life” or “½-life” refers to the time that would be required for the concentration of an agent, e.g., a fusion protein or arginine depleting agent as described herein, to fall by half in vitro or in vivo, for example, after injection into a mammal. In certain instances, the concentration of plasma arginine, after injection, is used herein as a proxy indicator of the half-life of the agent. In such instances, the term “therapeutic duration” is used to refer to the length of time a specified dosage of the arginine depleting agent is able to maintain the plasma concentration of arginine below a specified threshold concentration that a desired therapeutic effect is observed. In certain embodiments, the threshold concentration of plasma arginine is below 50 μM, below 40 μM, below 30 μM, below 20 μM, below 10 μM, below 5 μM, below 3 μM, or at a concentration below the detection limit of conventional analytical instrumentation.
Importantly, the present invention used a new ABD fusion approach to join an ABD and an arginase together so that arginase activity can be retained. Stable and soluble arginase-ABD fusion molecules that can bind to FcRn in a pH-dependent manner were successfully generated, allowing for efficient endosomal recycling. […] Taken together, a variety of different approaches are available for fine-tuning the pharmacokinetic properties of arginases, ensuring appropriate residence time in circulation for different disease conditions. Another key issue in the development of any therapeutic protein is to minimize immunogenicity to avoid adverse effects. Thus, the observed low immunogenicity of human arginase and the successful deimmunization of ABD (e.g. ABD094), which was also used in the present disclosure as gene fusion partner to extend the in vivo half-life, are important.

[2] = Daily food intake / 7-day intermittent fasting cycle in mice; type: in vivo, mouse
Excerpt: One of the most noticeable effects of intermittent fasting is reduction of bodyweight. […] Specifically, C57BL/6J, which is the most commonly used mouse strain for polygenic obesity model, was used in the study. It is well-reported that C57BL/6J male mice feeding on a high-fat diet will have prominent weight gain, become obese and develop hyperinsulinemia, hyperglycemia, impaired glucose tolerance and insulin resistance [Gallou-Kabani et al., 2007, Obesity 15(8):1996-2005]. Obesity was induced in C57BL/6J male mice via feeding ad libitum a high-fat diet containing 60 kcal % fat (HFD; Research Diets, D12492) for 12-14 weeks starting from 5-week old. These mice are referred as diet-induced obese (DIO) mice. DIO mice were stratified according to bodyweight into 2 groups. […] Both groups of mice continued to feed ad libitum on the HFD throughout the treatment period. One group of age-matched C57BL/6J male mice feeding ad libitum on an ordinary rodent chow diet (CD; LabDiet, 50IF/6F) and injected with vehicle served as the lean control [CD (vehicle) group]. Food intake and bodyweight of mice were measured daily. […] DIO mice were injected with rhArg on Day 0, which was Day 7 of the previous cycle. Similarly, Day 7 of the cycle shown in FIG. 1B was Day 0 of the next cycle. […] Bodyweight gain is one of the biomarkers related to aging.
C57BL/6J male mice were fed a high-fat diet from 5-week old for 12 weeks. They were then stratified into 3 groups according to their bodyweight and individually caged: (i) one group of mice received i.p. injection of 600 U N-ABD094-rhArg (SEQ ID NO: 50) once a week [HFD (rhArg) group] and was fed ad libitum the HFD for 5 weeks; (ii) one group of mice received i.p. injection of saline once a week, and was fed a predetermined amount of HFD on each day to artificially create a 7-day intermittent fasting cycle that mimics the pattern of food intake of mice administered once a week with rhArg [HFD (artificial IF) group)]; (iii) one group of mice was injected with saline once a week and was fed ad libitum the HFD [HFD (vehicle) group].

[3] = Bodyweight of treated mice; type: in vivo, mouse
[4] = Insulin tolerance test (ITT); type: in vivo, mouse; conditions: DIO C57BL/6J male mice on HFD; about 250 U once a week; at 7 week
Excerpt: In terms of reversing insulin resistance on pre-existing obese mice, insulin tolerance test (ITT) was employed (FIG. 59).
In terms of reversing insulin resistance on pre-existing obese mice, insulin tolerance test (ITT) was employed (FIG. 68A).

[5] = Glucose tolerance test (GTT); type: in vivo, mouse; conditions: DIO C57BL/6J male mice on HFD; about 250 U once a week; at 6 week
[6] = Fat pad and organ mass at end of treatment; type: in vivo, mouse; conditions: DIO C57BL/6J male mice on HFD; about 250 U once a week, 8 weeks
[7] = DIO C57BL/6J male mice on HFD, about 250 U i.p. once a week, 8 weeks
[8] = DIO C57BL/6J male mouse on HFD, 50 U i.p. once a week, 2 weeks, n=1

B1: BAH: arginase-ABD fusion protein, SEQ ID NO: 76 (protein)
chain: MKPISIIGVPMDLGQTRRGPDMGPSAMRYAGVIERLERLHYDIEDLGDIPIGKAERLHEQGDSRLRNLKAVAEANEKLAAAVDQVVQRGRFPLVLGGDHSIAIGTLAGVAKHYERLGVIWYDAHGDVNTAETSPSGNIHGMPLAASLGFGHPALTQIGGYCPKIKPEHVVLIGVRSLDEGEKKFIREKGIKIYTMHEVDRLGMTRVMEETIAYLKERTDGVHLSLDLDGLDPSDAPGVGTPVIGGLTYRESHLAMEMLAEAQIITSAEFVEVNPILDERNKTASVAVALMGSLFGEKLMAQHDEAVDANSLAEAKVLANRELDKYGVSDYYKNLINNAKTVEGVKALIDEILAALPHHHHHH
modifications: BAH Fusion Protein, Synthesized in the Lab
With B1 the “Therapeutic duration (and half-life)” value [1] was “surprisingly high therapeutic duration (and half-life)”.

B2: PEGylated His-rhArg: PEGylated His-tagged recombinant human arginase (SEQ ID NO: 101) (protein)
chain: MHHHHHHMSAKSRTIGIIGAPFSKGQPRGGVEEGPTVLRKAGLLEKLKEQECDVKDYGDLPFADIPNDSPFQIVKNPRSVGKASEQLAGKVAEVKKNGRISLVLGGDHSLAIGSISGHARVHPDLGVIWVDAHTDINTPLTTTSGNLHGQPVSFLLKELKGKIPDVPGFSWVTPCISAKDIVYIGLRDVDPGEHYILKTLGIKYFSMTEVDRLGIGKVMEETLSYLLGRKKRPIHLSFDVDGLDPSFTPATGTPVVGGLTYREGLYITEEIYKTGLLSGLDIMEVNPSLGKTPEEVTRTVNTAVAITLACFGLAREGNHKPIDYLNPPK
modifications: PEGylated; His-rhArg, Synthesized in Lab
For B2, the “Pattern of food intake (intermittent fasting cycles)” value [2, 7] was “repetitive 7-day intermittent fasting cycles”, the “Total food intake per week, less than HFD (vehicle) group” value [2, 7] was “about 28%” and the “Bodyweight reached under treatment” value ([3]; DIO C57BL/6J male mice on HFD, about 250 U i.p. once a week, from 50 g within 8 weeks) was 30 g. For the same molecule, the “Insulin sensitivity in ITT” value [4] was “marked increase in insulin sensitivity”, the “Glucose tolerance in GTT” value [5] was “significantly improved glucose tolerance” and the “Fat pad mass (perirenal, inguinal WAT, interscapular BAT) and liver mass” value [6] was “dramatically reduced to a weight similar to that of the vehicle-treated lean control mice”. For the same molecule, the “Kidney and heart mass” value [6] was “significantly reduced”.

B3: N-ABD094-rhArg-Co^2+: SEQ ID NO: 50 (cobalt substituted); Mn^2+ substituted with Co^2+ in the ABD-rhArg fusion protein (protein)
chain: MHHHHHHDEAVDANSLAEAKEAANAELDSYGVSDFYKRLIDKAKTVEGVEALKDAILAALPSGSNNNNNNGSGGMSAKSRTIGIIGAPFSKGQPRGGVEEGPTVLRKAGLLEKLKEQECDVKDYGDLPFADIPNDSPFQIVKNPRSVGKASEQLAGKVAEVKKNGRISLVLGGDHSLAIGSISGHARVHPDLGVIWVDAHTDINTPLTTTSGNLHGQPVSFLLKELKGKIPDVPGFSWVTPCISAKDIVYIGLRDVDPGEHYILKTLGIKYFSMTEVDRLGIGKVMEETLSYLLGRKKRPIHLSFDVDGLDPSFTPATGTPVVGGLTYREGLYITEEIYKTGLLSGLDIMEVNPSLGKTPEEVTRTVNTAVAITLACFGLAREGNHKPIDYLNPPK
modifications: Co2+ substituted for Mn2+; N-ABD094-rhArg, Synthesized in the Lab
notes: Mn^2+ substituted with Co^2+ in the ABD-rhArg fusion protein
In the case of B3, the “Length of fasting period in the 7-day intermittent fasting cycle” value [2, 8] is reported as 4 days, the “Pattern of food intake (intermittent fasting cycle)” value [2, 8] is reported as “induce a 7-day intermittent fasting cycle” and the “Bodyweight reached under treatment” value ([3]; DIO C57BL/6J male mouse on HFD, 50 U i.p. once a week, from 45 g within 2 weeks, n=1) is reported as 32 g.

B4: ADI-ABD: arginine deiminase fused with albumin binding domain (SEQ ID NO: 107) (protein)
chain: MHHHHHHDEAVDANSLAEAKVLANRELDKYGVSDYYKNLINNAKTVEGVKALIDEILAALPSGSNNNNNNGSGGSVFDSKFKGIHVYSEIGELESVLVHEPGREIDYITPARLDELLFSAILESHDARKEHKQFVAELKANDINVVELIDLVAETYDLASQEAKDKLIEEFLEDSEPVLSEEHKVVVRNFLKAKKTSRELVEIMMAGITKYDLGIEADHELIVDPMPNLYFTRDPFASVGNGVTIHYMRYKVRQRETLFSRFVFSNHPKLINTPWYYDPSLKLSIEGGDVFIYNNDTLVVGVSERTDLQTVTLLAKNIVANKECEFKRIVAINVPKWTNLMHLDTWLTMLDKDKFLYSPIANDVFKFWDYDLVNGGAEPQPVENGLPLEGLLQSIINKKPVLIPIAGEGASQMEIERETHFDGTNYLAIRPGVVIGYSRNEKTNAALEAAGIKVLPFHGNQLSLGMGNARCMSMPLSRKDVKW
modifications: ADI-ABD, Synthesized in the Lab
With B4 the “Time of minimum level of food intake in the cycle” value ([2]; DIO C57BL/6J male mice on HFD, i.p. once a week) was “after the first day”, the “Pattern of food intake (intermittent fasting cycle)” value ([2]; DIO C57BL/6J male mouse on HFD, 5 U i.p. once a week, 2 weeks, n=1) was “induce a 7-day intermittent fasting cycle” and the “Bodyweight reached under treatment” value ([3]; DIO C57BL/6J male mouse on HFD, 5 U i.p., first cycle, from 47 g in 2 days, n=1) was “about 44 g”.

B5: BHA: arginase-ABD fusion protein, SEQ ID NO: 75 (protein)
chain: MKPISIIGVPMDLGQTRRGPDMGPSAMRYAGVIERLERLHYDIEDLGDIPIGKAERLHEQGDSRLRNLKAVAEANEKLAAAVDQVVQRGRFPLVLGGDHSIAIGTLAGVAKHYERLGVIWYDAHGDVNTAETSPSGNIHGMPLAASLGFGHPALTQIGGYCPKIKPEHVVLIGVRSLDEGEKKFIREKGIKIYTMHEVDRLGMTRVMEETIAYLKERTDGVHLSLDLDGLDPSDAPGVGTPVIGGLTYRESHLAMEMLAEAQIITSAEFVEVNPILDERNKTASVAVALMGSLFGEKLMHHHHHHAQHDEAVDANSLAEAKVLANRELDKYGVSDYYKNLINNAKTVEGVKALIDEILAALP
modifications: BHA Fusion Protein, Synthesized in the Lab
For B5, the “Therapeutic duration (and half-life)” value [1] was “surprisingly high therapeutic duration (and half-life)”.
